Data published in US12085574B2, “Method and means for diagnosing and treating allergy” (BIOMEDICAL INTERNATIONAL R+D GMBH, priority 2014, dated 2024).

B1: apo-Alt a 1: recombinant Alternaria alternata allergen Alt a 1, dialyzed against DFO, iron-free (protein, UniProt P79085 19-157, looked up)
Major allergen Alt a 1: APLESRQDTASCPVTTEGDYVWKISEFYGRKPEGTYYNSLGFNIKATNGGTLDFTCSAQADKLEDHKWYSCGENSFMDFSFDSDRSGLLLKQKVSDDITYVATATLPNYCRAGGNGPKDFVCQGVADAYITLVTLPKSS
B2: holo-Alt a 1: recombinant Alt a 1 incubated with equimolar iron and three-fold molar catechol (protein, UniProt P79085 19-157, looked up)
Major allergen Alt a 1: B1 Major allergen Alt a 1
modifications: iron and catechol bound
notes: recombinant Alt a 1 incubated with equimolar iron and three-fold molar catechol
B3: apoBetv1: recombinant Bet v 1a birch allergen, used as purchased, without siderophore-iron (protein, UniProt P15494 2-160, looked up)
Major pollen allergen Bet v …: GVFNYETETTSVIPAARLFKAFILDGDNLFPKVAPQAISSVENIEGNGGPGTIKKISFPEGFPFKYVKDRVDEVDHTNFKYNYSVIEGGPIGDTLEKISNEIKIVATPDGGSILKISNKYHTKGDHEVKAEQVKASKEMGETLLRAVESYLLAHSDAYN
B4: holoBetv1: recombinant Bet v 1a incubated with equimolar iron and three-fold molar catechol (protein, UniProt P15494 2-160, looked up)
Major pollen allergen Bet v …: B3 Major pollen allergen Bet v …
modifications: iron and catechol complex
notes: recombinant Bet v 1a incubated with equimolar iron and three-fold molar catechol

Columns and labels:
[1] = Iron-binding capacity of lipocalin allergens (quenching of autofluorescence); conditions: 2 μM allergen, 50UM siderophore (2,3, Dihydroxybenzoic Acid), iron III 0 to 50 μM; excitation/emission 280 and 340
Experimental: In this assay, 2 μM of allergen (in the example BLG) and 50UM of siderophores like 2,3, Dihydroxybenzoic Acid are incubated with increasing concentrations of iron III (Fe3+) ranging from 0 to 50 μM (x-axis in FIG. 5). Quenching of autofluorescence is measured at excitation and emission wavelengths of […] respectively in endpoint mode (y-axis in FIG. 5).

[2] = tested on: PMA-activated PBMCs; assay: Cytokine content (IL13, IFN-γ) of supernatants of PMA-activated PBMCs stimulated with apo-/holo-allergens (ELISA); assay type: cell-based, human; conditions: PMA-activated PBMCs incubated for 18-24h; allergen 100 μg/ml with or without 10 μM catechol and 10 μM iron
Experimental: (§1) To PBMCs (0.5 Mio/test) a final concentration of 0.75 ng/ml PMA, 100 μg/ml apo-allergen (BLG, Alt a 1 and Bet v 1) with or without 10 μM catechol (Sigma) and 10 μM iron was added. For control purposes also tested without allergen or PMA. PMA each substance was determined in pre-experiments and considered concentration was optimal when cells were slightly downregulating surface CD4+ expression (7). After 18-24h supernatants were collected and stored at −80° ° C. until further analysis.
LCN2 and the cytokine levels of IL13 and IFNγ were detected with commercially available kits according to the manufacturers' protocol. Sera were diluted 1:100 before determining LCN2-levels, whereas supernatants of 18-24h stimulation were used undiluted. Sensitivity of LCN2 assay is about 75 pg/ml and kits were purchased from R&D Systems (Minneapolis, MN, USA), whereas ELISAs for human IL13 and IFNγ were from ebioscience (Santa Clara, CA, USA), both assays having a reported sensitivity of 4 pg/ml.

[3] = tested on: CD3+ cells of PMA-activated PBMCs; assay: CD4/CD8 expression and survival of PMA-activated PBMCs incubated with apo- or holo-lipocalin allergens (FACS); assay type: cell-based, human; conditions: PBMCs pre-activated 24 h with PMA 0.75 ng/ml; allergen 100 μg/ml; holo = with catechol and iron; gated for CD3, 10000 CD3 cells recorded
Experimental: Cells were then stained for CD3-APC, CD8-PE, CD4-PE-CY7, 7AAD and Annexin V-FITC, gated for CD3 and analyzed by a FACS Canto II. Data acquisition was stopped when 10000 CD3 cells were recorded.
Apo-allergens were incubated with equimolar concentration of iron (ammonium iron (III) citrate, Sigma) and three-fold molar concentration of catechol, since 3 catechols are necessary for hexadental binding of iron in the LCN2-pocket against deionized water. Recombinant Bet v1a (Biomay, Vienna, Austria) was used as purchased
Blood was mixed with equal volumes of PBS containing 2% FCS before applying onto 10 ml Ficoll-Paque PLUS (GE Healthcare, Uppsala, Sweden), centrifugation at 400 g for 30 min without brake and washing the cells twice with 0,89% sodium chloride solution. Cells were then diluted to a concentration of 1Mio cells/ml in RPMI medium containing 10% FCS. Throughout the study FCS from the same lot was always used.
as §1, with “After 18-24h supernatants were collected and stored at −80° ° C. until further analysis.” left out

Row | Molecule | Autofluorescence of the cavity (iron-binding) [1] | Th2-cytokines released upon stimulation (IL13 and IFN-γ analyzed) [2] | CD4 expression and survival [3]
1 | BLG: commercially available bovine beta-lactoglobulin, lipocalin allergen | quenched |  | 
2 | B1 |  | released | 
3 | B2 |  | not | 
4 | B3 |  | released | increase
5 | B4 |  | not | sharp contrast
